From patent US20040053819A1

Target: human GLP-1 receptor (human) (UniProt P43220)
Experiment: cell-based or functional assay

Sequence of human GLP-1 receptor (human) (P43220 24-463): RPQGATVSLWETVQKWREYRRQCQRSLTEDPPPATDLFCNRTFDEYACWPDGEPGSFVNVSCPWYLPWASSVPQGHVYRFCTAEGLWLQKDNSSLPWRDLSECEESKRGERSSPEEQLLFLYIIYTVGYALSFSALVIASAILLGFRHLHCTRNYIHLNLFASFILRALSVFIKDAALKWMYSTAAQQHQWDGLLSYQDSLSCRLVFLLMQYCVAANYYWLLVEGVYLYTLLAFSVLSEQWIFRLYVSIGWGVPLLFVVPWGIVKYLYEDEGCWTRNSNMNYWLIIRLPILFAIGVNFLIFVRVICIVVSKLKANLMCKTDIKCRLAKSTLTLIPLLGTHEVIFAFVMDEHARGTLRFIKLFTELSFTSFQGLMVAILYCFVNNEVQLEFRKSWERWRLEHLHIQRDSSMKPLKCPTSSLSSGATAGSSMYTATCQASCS

| In vitro activity relative to Val^8-GLP-1(7-37)OH (EC50 potency, CRE-BLAM β-lactamase reporter in HEK-293 cells expressing human GLP-1 receptor) (fold relative to Val^8-GLP-1(7-37)OH) | Substance |
| --- | --- |
| 3.33 | Val^8-Glu^22-GLP-1(7-37)OH (peptide) |
| 2.06 | GLP-1(7-37)OH (peptide) |
| 1 | Val^8-GLP-1(7-37)OH (peptide) |
| 1.22 | Val^8-Lys^22-GLP-1(7-37)OH (peptide) |

Further lines, the substance ahead of its results:

| Substance | In vitro activity relative to Val^8-GLP-1(7-37)OH (EC50 potency, CRE-BLAM β-lactamase reporter in HEK-293 cells expressing human GLP-1 receptor) (fold relative to Val^8-GLP-1(7-37)OH) |
| --- | --- |
| Val^8-GLP-1(7-36)NH2 (peptide) | 1.06 |
| Gly^8-GLP-1(7-37)OH (peptide) | 1.67 |
| Val^8-Ala^27-GLP-1(7-37)OH (peptide) | 1 |
| Val^8-Trp^12-GLP-1(7-37)OH (peptide) | 1.07 |
| Val^8-Arg^26-GLP-1(7-37)OH (peptide) | 1.47 |
| Val^8-Tyr^12-GLP-1(7-37)OH (peptide) | 1.73 |
| Val^8-Leu^16-GLP-1(7-37)OH (peptide) | 1.13 |
| Arg^34Lys^26-(N-ε-(γ-Glu(N-α-hexadecanoyl)))-GLP-1(7-37) (peptide) | 1.92 |
